Laboratory results published in US20160311886A1, “Constructs Binding to Phosphatidylserine and Their Use in Disease Treatment and Imaging” (Board of Regents, The University of Texas System, priority 2005, published 2016).

Key:
MDA-MB-231 tumor vessels = assay: Double staining of orthotopic MDA-MB-231 tumors; assay type: in vivo, mouse; conditions: biotinylated reagent i.v., one hour
Protocol: In further studies, mice bearing MDA-MB-231 tumors (0.3-0.7 cm^3 in volume) were injected intravenously with 50 μg of biotinylated 9D2, control IgM or annexin V (six mice per group). Biotinylated reagents were first incubated with streptavidin-Cy3 conjugate, washed in PBS, then incubated with MECA 32 antibody followed by FITC-tagged anti-rat IgG secondary antibody. Single images, taken with appropriate filters for Cy3 (red) and FITC (green) fluorescence respectively, were captured by digital camera and transferred to a computer. […] The same method was used to analyze tumors from mice injected with control rat IgM or saline. The percentage of vessels with localized 9D2 or annexin V was calculated as follows: mean number of yellow vessels per field divided by mean number of green (total) vessels multiplied by 100.
Double staining studies were also performed in which mice bearing orthotopic MDA-MB-231 breast tumors were injected intravenously with biotinylated 9D2 antibody, biotinylated control IgM or biotinylated annexin V. One hour later, the mice were exsanguinated, and their tumors were removed and frozen sections were cut. The tumor sections were then stained with Cy3-conjugated streptavidin to detect the biotinylated proteins and with FITC-conjugated MECA32 to detect vascular endothelium. […]

human CMV AD169 = assay: CMV plaque assay after antibody treatment
[1] = test system: orthotopic MDA-MB-231 tumors; assay: 3G4 tumor treatment and histology; assay type: in vivo, mouse
Protocol: The general protocol for the animal tumor treatment studies is conducted as follows. Unless particular differences are specified, this is the protocol used throughout the studies of the present application.
For the syngeneic model, Meth A mouse fibrosarcoma tumor cells were used. In one xenogeneic model, human MDA-MB-231 breast tumor cells were seeded into the mammary fat pad. In another xenogeneic model, a large human Hodgkin's lymphoma L540 xenograft was established by injecting cells and allowing the tumor to grow to a size of over 500 mm^3 before treatment. […] Treatment was repeated 3 times a week. Animals were monitored twice a week for tumor measurements.
Groups of 8-10 female SCID mice were injected subcutaneously with 2×10^7 L540 cells or orthotopically with 1×10^7 MDA-MB-435 or MDA-MB-231 cells. BALB/c mice were injected subcutaneously with 1×10^6 Meth A cells. Tumors were allowed to grow to an average diameter of 0.8-1 cm (L540), 0.6-0.7 cm (MDA-MB-435), 0.5-0.7 cm (MDA-MB-231), or <0.1 cm (Meth A). […] Animals were monitored three times a week for tumor size and body weight. Mice were sacrificed when tumors in control mice reached a diameter of 1.5-2 cm.

hβ2GPI domains = assay: ELISA on recombinant hβ2GPI domain constructs; assay type: binding, human; conditions: constructs I-V, II-V, III-V, IV-V
Protocol: The assay was performed as described above with the following modifications. hβ2GPI, nicked hβ2GPI, or recombinant hβ2GPI peptides were coated on 96-well Immunlon 2HB microtiter plates overnight at a concentration of 10 μg/ml. Plates were then blocked in 1% OVA for 1 hr. at room temperature. […] Plates were incubated for 1 hr. at 37° C. and antibody binding was detected. All ELISA studies were performed at least three times.
β2GPI has five domains, of which the fifth domain is responsible for binding to anionic phospholipids. […] These domain constructs were made by serial truncations from the N-terminus, and so lack each of the N-terminal domains in turn, as follows: recombinant full-length hβ2GPI contains domains I-V; hβ2GPI from which domain I has been deleted contains domains II-V; hβ2GPI from which domains I and II have been deleted contains domains III-V; hβ2GPI from which domains I, II and III have been deleted contains domains IV-V; and hββ2GPI from which domains I, II, III and IV have been deleted contains domain V only.

bEnd.3 cells = assay: Growth of bEnd.3 cells in vitro; assay type: cell-based, mouse; conditions: 20 μg to 40 μg total IgG per well; 48 and 96 hours
Protocol: 20% DMEM alone (control) or 20% DMEM containing the antibodies (20 μg to 40 μg total IgG per well) was added 4 hours after seeding. Each clone was tested on two separate plates in triplicates. Cells were detached 48 and 96 hours later, the cell count was determined in each well and the average cell number per treatment was calculated.

[2] = test system: orthotopic MDA-MB-435 breast tumors; assay: 3G4 localization to tumor blood vessels in vivo; parameters: species or system mouse
Excerpt: Frozen sections of tumor and normal tissues were stained for the presence of mouse immunoglobulin. SCID mice that had been confirmed as having no detectable circulatory immunoglobulin were used to avoid background staining. In these studies, sections were counterstained with anti-mouse CD31 to detect vascular endothelium and the images were merged. […] Coincident staining appeared yellow, unless dominated by a particularly intense green or red fluorescence in that region. The antigen specificity of vessel localization was confirmed by the lack of endothelial staining in tumors from mice injected with the isotype-matched control antibodies, BBG3.

mCMV RVG102 = assay: Survival of mCMV-infected mice; assay type: in vivo, mouse; conditions: past 90 days post infection; untreated 25%
tumor cells = assay: Direct inhibitory effects of 3G4 on tumor cells in vitro; assay type: cell-based

Annexin V: High affinity PS binding ligand; natural ligand binding anionic phospholipids and PE
MECA 32 positive vessels that bound the reagent (MDA-MB-231 tumor vessels): About 40%

B1: 3G4: Mouse IgG3 kappa monoclonal antibody to PS and anionic phospholipids; binding mediated by β2-glycoprotein I (antibody, listed as Mus musculus)
VH: MGWTWIFILILSVTTGVHSEVQLQQSGPELEKPGASVKLSCKASGYSFTGYNMNWVKQSHGKSLEWIGHIDPYYGDTSYNQKFRGKATLTVDKSSSTAYMQLKSLTSEDSAVYYCVKGGYYGHWYFDVWGAGTTVTVSSATTTAPSVYPLVP
VL: MDMRAPAQILGFLLLLFPGTRCDIQMTQSPSSLSASLGERVSLTCRASQDIGSSLNWLQQGPDGTIKRLIYATSSLDSGVPKRFSGSRSGSDYSLTISSLESEDFVDYYCLQYVSSPPTFGAGTKLELKRADAAPTVFIFGRIP
inhibitory effect on viral titer (human CMV AD169; high m.o.i., addition delayed to 48 hours): 2 log10 | decrease in viral titer (human CMV AD169; high m.o.i., addition up to 24 hours after infection): 5-6 log10 | inhibition of viral replication vs GV39G (human CMV AD169; m.o.i. of 3, 50 μg/ml): 3 logs | decrease in viral titer vs GV39G (human CMV AD169; m.o.i. of 3, 100 μg/ml): 5 log10 | decrease in viral titer vs GV39G (human CMV AD169; m.o.i.=0.01, 50 μg/ml): 3.5 log10 | inhibition of viral replication (human CMV AD169; m.o.i.=0.01, 100 μg/ml): approximately 99.9999% | decrease in viral titer vs GV39G (human CMV AD169; m.o.i.=0.01 pfu/cell, 100 μg/ml): 6 log10 | mean number of CD-31 positive vessels per square millimeter ([1]; BBG3-treated: 160±20): 50±15 per square millimeter | reduction in total tumor plasma volume vs BBG3 ([1]; FITC-dextran plasma marker): 60% | mice with long-term complete remissions ([1]; MDA-MB-231 tumors): 30% | vessels with disintegration of vascular endothelium ([1]; histological examination): about 50% | reduction in tumor vascularity ([1]; mouse, in vivo): about 70% | reduction in microvascular density ([1]; treated vs. untreated mice): 70% | β2GPI domain recognized (hβ2GPI domains): binds to β2GPI at domain II | inhibition of growth of bEnd.3 cells (bEnd.3 cells): particularly effective | tumor blood vessels with localized antibody ([2]; after i.p. or i.v. injection): 40±10% | time to maximal localization to tumor vessels ([2]; i.p. injection): ≤ 6 h | time to maximal staining of tumor vessels ([2]; i.v. injection): ≤ 1 h | survival (mCMV RVG102): 100% | direct inhibitory effect on tumor cells (tumor cells): No direct inhibitory effect on tumor cells was observed
